This is an account of results in patent US10640547B2, “Immunotherapy against melanoma and other cancers” (IMMATICS BIOTECHNOLOGIES GMBH, priority 2016, dated 2020).

In the experiment the target is HLA-A*02:01 (Homo sapiens, UniProt P04439, D140Y/D185E/D98H/E176V/E277Q/G131W/G231S/I119V/I121R/I166T/I218V/L300P/L318F/N151K/N90K/P208A/P217A/Q86G/Q94H/R138H/R169H/T345S). Put plainly: MHC binding assay (UV-ligand exchange, β2m ELISA). The following applies: MHC class I binding score; binding to HLA-A*02:01 ranged by peptide exchange yield (UV-ligand exchange, β2m ELISA). The text has this: Candidate peptides for T cell based therapies according to the present invention were further tested for their MHC binding capacity (affinity). The individual peptide-MHC complexes were produced by UV-ligand exchange, where a UV-sensitive peptide is cleaved upon UV-irradiation, and exchanged with the peptide of interest as analyzed. Only peptide candidates that can effectively bind and stabilize the peptide-receptive MHC molecules prevent dissociation of the MHC complexes. To determine the yield of the exchange reaction, an ELISA was performed based on the detection of the light chain (β2m) of stabilized MHC complexes. The assay was performed as generally described in Rodenko et al. (Rodenko et al., 2006).
96 well MAXISorp plates (NUNC) were coated over night with 2 ug/ml streptavidin in PBS at room temperature, washed 4× and blocked for 1 h at 37° C. in 2% BSA containing blocking buffer. Refolded HLA-A*02:01/MLA-001 monomers served as standards, covering the range of 15-500 ng/ml. Peptide-MHC monomers of the UV-exchange reaction were diluted 100 fold in blocking buffer. Samples were incubated for 1 h at 37° C., washed four times, incubated with 2 ug/ml HRP conjugated anti-β2m for 1 h at 37° C., washed again and detected with TMB solution that is stopped with […]. Absorption was measured at 450 nm. Candidate peptides that show a high exchange yield (preferably higher than 50%, most preferred higher than 75%) are generally preferred for a generation and production of antibodies or fragments thereof, and/or T cell receptors or fragments thereof, as they show sufficient avidity to the MHC molecules and prevent dissociation of the MHC complexes.
(An ELISA detects its analyte on a solid surface through an enzyme-linked reagent.)
Turning to “144 (SVDEVEISV; listed as Homo sapiens) [compound 144]”, the Peptide exchange entry is recorded as “+++ (>50 = +++)”.

For “145 (TLPNIYVTL; listed as Homo sapiens) [compound 145]”, the Peptide exchange result is recorded as “+++ (>50 = +++)”.

Regarding “146 (GVGPVPARA; listed as Homo sapiens) [compound 146]”, the Peptide exchange entry was “+++ (>50 = +++)”.

In the case of “147 (ILDDQTNKL; listed as Homo sapiens) [compound 147]”, the Peptide exchange entry is reported as “+++ (>50 = +++)”.

For the substance “148 (TLKDIVQTV; listed as Homo sapiens) [compound 148]”, the Peptide exchange result is on record as “+++ (>50 = +++)”.

For “149 (YLDTFALKL; listed as Homo sapiens) [compound 149]”, the Peptide exchange result was “++++ (>75% = ++++)”.

With “150 (KLFPSPLQTL; listed as Homo sapiens) [compound 150]”, the Peptide exchange entry is “++++ (>75% = ++++)”.

As for “151 (FLGEPASYLYL; listed as Homo sapiens) [compound 151]”, the Peptide exchange entry was “++++ (>75% = ++++)”.

On to “152 (IMEDFTTFL; listed as Homo sapiens) [compound 152]”, for which the Peptide exchange entry was “++++ (>75% = ++++)”.

For “153 (RLDEVSREL; listed as Homo sapiens) [compound 153]”, the Peptide exchange entry is given as “+++ (>50 = +++)”.

For the substance “154 (TLGTATFTV; listed as Homo sapiens) [compound 154]”, the Peptide exchange result was “++++ (>75% = ++++)”.

Consider “156 (ALMDTDGSGKLNL; listed as Homo sapiens) [compound 156]”, for which the Peptide exchange result is “+++ (>50 = +++)”.

Regarding “157 (HLFETISQA; listed as Homo sapiens) [compound 157]”, the Peptide exchange entry is “+++ (>50 = +++)”.

Turning to “158 (KLIPSIIVL; listed as Homo sapiens) [compound 158]”, the Peptide exchange entry is reported as “+++ (>50 = +++)”.

For “159 (TILATVPLV; listed as Homo sapiens) [compound 159]”, the Peptide exchange result was “++++ (>75% = ++++)”.

On to “160 (ALDDISESI; listed as Homo sapiens) [compound 160]”, for which the Peptide exchange result is on record as “++++ (>75% = ++++)”.

Turning to “161 (GLCDSIITI; listed as Homo sapiens) [compound 161]”, the Peptide exchange result was “++++ (>75% = ++++)”.

Turning to “162 (TLDGNPFLV; listed as Homo sapiens) [compound 162]”, the Peptide exchange entry is “+++ (>50 = +++)”.

As to “163 (RLMANPEALKI; listed as Homo sapiens) [compound 163]”, the Peptide exchange result is “+++ (>50 = +++)”.

“164 (ALFFQLVDV; listed as Homo sapiens) [compound 164]”: the Peptide exchange result is listed as “++ (>20% = ++)”.

As for “165 (ALIEVLQPLI; listed as Homo sapiens) [compound 165]”, the Peptide exchange result is given as “++++ (>75% = ++++)”.

Turning to “166 (SIIPPLFTV; listed as Homo sapiens) [compound 166]”, the Peptide exchange result was “++++ (>75% = ++++)”.

In the case of “167 (KVLGDVIEV; listed as Homo sapiens) [compound 167]”, the Peptide exchange entry is listed as “++++ (>75% = ++++)”.

Consider “168 (KLLAATLLL; listed as Homo sapiens) [compound 168]”, for which the Peptide exchange result is reported as “++++ (>75% = ++++)”.

In the case of “169 (TLLESIQHV; listed as Homo sapiens) [compound 169]”, the Peptide exchange entry is “++++ (>75% = ++++)”.

Take “170 (KLKEAVEAI; listed as Homo sapiens) [compound 170]”: the Peptide exchange entry is given as “++ (>20% = ++)”.

As to “171 (KVSGVILSV; listed as Homo sapiens) [compound 171]”, the Peptide exchange result is on record as “++++ (>75% = ++++)”.

For the substance “172 (FLPAGIVAV; listed as Homo sapiens) [compound 172]”, the Peptide exchange result was “++++ (>75% = ++++)”.

On to “173 (ALDDIIYRA; listed as Homo sapiens) [compound 173]”, for which the Peptide exchange entry is recorded as “+++ (>50 = +++)”.

As for “174 (TLLEGLTEL; listed as Homo sapiens) [compound 174]”, the Peptide exchange result is listed as “+++ (>50 = +++)”.

Take “175 (VLDSVDVRL; listed as Homo sapiens) [compound 175]”: the Peptide exchange result is listed as “++++ (>75% = ++++)”.

On to “176 (TLYEQEIEV; listed as Homo sapiens) [compound 176]”, for which the Peptide exchange entry was “++++ (>75% = ++++)”.

For the substance “177 (ILWDTLLRL; listed as Homo sapiens) [compound 177]”, the Peptide exchange result is “++++ (>75% = ++++)”.

“178 (FAYDGKDYIA; listed as Homo sapiens) [compound 178]”: the Peptide exchange entry is on record as “++++ (>75% = ++++)”.

Turning to “179 (ALDDTVLQV; listed as Homo sapiens) [compound 179]”, the Peptide exchange entry was “+++ (>50 = +++)”.

Turning to “180 (KLAEALYIA; listed as Homo sapiens) [compound 180]”, the Peptide exchange entry was “+++ (>50 = +++)”.

Take “181 (GLIDLEANYL; listed as Homo sapiens) [compound 181]”: the Peptide exchange entry was “++++ (>75% = ++++)”.

With “182 (SVALVIHNV; listed as Homo sapiens) [compound 182]”, the Peptide exchange entry is “++++ (>75% = ++++)”.

With “183 (FLDSLIYGA; listed as Homo sapiens) [compound 183]”, the Peptide exchange result is reported as “++++ (>75% = ++++)”.

For the substance “184 (VLFSSPPVILL; listed as Homo sapiens) [compound 184]”, the Peptide exchange result is on record as “++++ (>75% = ++++)”.

Turning to “185 (ILADATAKM; listed as Homo sapiens) [compound 185]”, the Peptide exchange result is given as “++++ (>75% = ++++)”.

As for “186 (FLDHEMVFL; listed as Homo sapiens) [compound 186]”, the Peptide exchange result is recorded as “++++ (>75% = ++++)”.

For “187 (SLPRPTPQA; listed as Homo sapiens) [compound 187]”, the Peptide exchange result was “+++ (>50 = +++)”.

With “188 (VVVDPIQSV; listed as Homo sapiens) [compound 188]”, the Peptide exchange result is listed as “+++ (>50 = +++)”.

Regarding “193 (ALDEPTTNL; listed as Homo sapiens) [compound 193]”, the Peptide exchange entry is “+++ (>50 = +++)”.

As to “194 (TLDDIMAAV; listed as Homo sapiens) [compound 194]”, the Peptide exchange entry is “+++ (>50 = +++)”.

As for “195 (IAAGIFNDL; listed as Homo sapiens) [compound 195]”, the Peptide exchange entry is listed as “+ (>10% = +)”.

On to “196 (ALEPIDITV; listed as Homo sapiens) [compound 196]”, for which the Peptide exchange result is reported as “+++ (>50 = +++)”.

With “197 (ALDSGFNSV; listed as Homo sapiens) [compound 197]”, the Peptide exchange entry is listed as “++++ (>75% = ++++)”.

Turning to “198 (EVVDKINQV; listed as Homo sapiens) [compound 198]”, the Peptide exchange entry is recorded as “+ (>10% = +)”.

With “199 (AIHTAILTL; listed as Homo sapiens) [compound 199]”, the Peptide exchange result was “++ (>20% = ++)”.

Regarding “200 (LLEEINHFL; listed as Homo sapiens) [compound 200]”, the Peptide exchange entry is given as “+++ (>50 = +++)”.

For the substance “201 (SLIDRTIKM; listed as Homo sapiens) [compound 201]”, the Peptide exchange entry was “+++ (>50 = +++)”.

Take “202 (RVAFKINSV; listed as Homo sapiens) [compound 202]”: the Peptide exchange entry is “+++ (>50 = +++)”.

As to “203 (FLNEDISKL; listed as Homo sapiens) [compound 203]”, the Peptide exchange entry is on record as “+++ (>50 = +++)”.

For “204 (RMDEEFTKI; listed as Homo sapiens) [compound 204]”, the Peptide exchange result is “+++ (>50 = +++)”.

For the substance “205 (SLKSKVLSV; listed as Homo sapiens) [compound 205]”, the Peptide exchange result is “++++ (>75% = ++++)”.

On to “206 (LLYEDIPDKV; listed as Homo sapiens) [compound 206]”, for which the Peptide exchange result is “+++ (>50 = +++)”.

Take “207 (VQIGDIVTV; listed as Homo sapiens) [compound 207]”: the Peptide exchange result is on record as “++++ (>75% = ++++)”.

As for “208 (YSDDIPHAL; listed as Homo sapiens) [compound 208]”, the Peptide exchange result was “++ (>20% = ++)”.

For the substance “209 (SILDGLIHL; listed as Homo sapiens) [compound 209]”, the Peptide exchange entry is given as “+++ (>50 = +++)”.

As to “210 (LLPELRDWGV; listed as Homo sapiens) [compound 210]”, the Peptide exchange result is given as “+++ (>50 = +++)”.

As to “212 (LLKDSIVQL; listed as Homo sapiens) [compound 212]”, the Peptide exchange result is given as “+++ (>50 = +++)”.

In the case of “214 (VLMEMSYRL; listed as Homo sapiens) [compound 214]”, the Peptide exchange result was “+++ (>50 = +++)”.

For “215 (EVISKLYAV; listed as Homo sapiens) [compound 215]”, the Peptide exchange entry is on record as “+++ (>50 = +++)”.
